From the supplement of paper PMC9732359
± gives the uncertainty stated by the source.

Assay: protein stability index of a GFP-peptide fusion (yeast GPS) (PSI 1-4); higher = more stable; sorted into four equal gates, so the index is relative within each strain
Summary of the method: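 The protein stability index combines read frequencies across sorting gates, each weighted by its gate number and then summed. To obtain those frequencies, a pooled yeast library of GFP fusions to tiled 17-residue yeast protein peptides, on a plasmid also expressing Cherry, was grown to mid-log phase in leucine-free medium. The cells were sorted into four equal gates by GFP/Cherry ratio before plasmid amplification by PCR and Illumina sequencing.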

Sequence | protein stability index (ubr1∆) | protein stability index (doa10∆) | protein stability index (pdr5∆) | protein stability index (san1∆)
GNKLVELMRIISRNGDT [SMC1] | 3.28 ± 0.25 | – | – | –
IWRKVPGDVLDKDAFIP [SNU114] | – | 3.6 ± 0.28 | – | –
RILQQLKLDKIIHVLTT [RGR1] | 2.22 ± 0.073 | 1.64 ± 0.068 | 1.21 ± 0.053 | 1.72 ± 0.15
ICGYTRKEGPTIYYVDS [PRE2] | 2.84 ± 0.069 | 3.36 ± 0.095 | 3.24 ± 0.081 | 3.42 ± 0.042
KITIGIQRTTESLILKW [RGR1] | 1.66 ± 0.04 | 2.33 ± 0.086 | 1.6 ± 0.067 | 1.49 ± 0.078
RSVRIPWYNNPVSCIIQ [PRP8] | 2.55 ± 0.06 | 2.33 ± 0.1 | 2.19 ± 0.068 | 2.02 ± 0.16
EQTVSAVTEATSTNGDS [RGR1] | 3.43 ± 0.12 | 3.45 ± 0.16 | 3.29 ± 0.077 | 3.28 ± 0.083
HGQLKLSIQYMIQKVME [RPN5] | 2.84 ± 0.085 | 2.17 ± 0.1 | 2.73 ± 0.081 | 2.04 ± 0.15
KIFWERLKEINGWEKYL [ISW2] | 1.46 ± 0.24 | – | – | –
GLLSQAIGCIERSDLLP [YJR042W/NUP85] | 2.51 ± 0.069 | 2.37 ± 0.07 | 2.37 ± 0.064 | 2.43 ± 0.09
SKRYIPSVNDFVIGVII [RRP40] | 2.73 ± 0.054 | 2.4 ± 0.054 | 2.66 ± 0.056 | 2.17 ± 0.078
KQVQISHHLKADTIDHD [YGL172W/NUP49] | 2.92 ± 0.043 | 2.91 ± 0.067 | 3.09 ± 0.053 | 2.79 ± 0.065
STTAALQSISSLTISLY [RPN7] | 2.12 ± 0.047 | 1.74 ± 0.041 | 1.82 ± 0.035 | 1.95 ± 0.049
LYDSLASTPSIRPDGRL [RRP42] | 2.99 ± 0.088 | 2.64 ± 0.14 | 2.81 ± 0.096 | 2.4 ± 0.18
LCQKSPVMADLNGGLQF [FAS2] | 2.53 ± 0.2 | 2.79 ± 0.11 | 2.65 ± 0.17 | 2.94 ± 0.14
TKPGVYYVPYSKLMPVL [RPC82] | 1.96 ± 0.09 | 1.54 ± 0.059 | 1.59 ± 0.049 | 1.91 ± 0.067
ALCKNRKCQFRTPDSIS [POP1] | 1.94 ± 0.036 | 2.31 ± 0.053 | 2.77 ± 0.058 | 2.28 ± 0.082
GFKTPKTAIEGSYIDKK [RPS11A] | 3.201 ± 0.031 | 2.98 ± 0.043 | 3.21 ± 0.052 | 3.12 ± 0.032
TRISSQFEKSRKVSGPR [RET1] | 2.75 ± 0.2 | 2.94 ± 0.27 | 2.92 ± 0.18 | 2.92 ± 0.098
SVILSVISMFVLPIFTT [YML031W/NDC1] | 1.93 ± 0.043 | 1.29 ± 0.045 | 1.5 ± 0.059 | 1.3 ± 0.092
HPLHELIIQYPPNNARR [ISW2] | 3 ± 0.047 | 3.06 ± 0.065 | 2.88 ± 0.056 | 2.73 ± 0.052
KMLMNLHKEQWQSGLKM [RPN11] | 2.13 ± 0.035 | 2.14 ± 0.048 | 2.05 ± 0.04 | 2.4 ± 0.039
AVIESVVNQPTGKIVDV [FAS1] | 2.39 ± 0.08 | 2.49 ± 0.097 | 2.57 ± 0.14 | 2.52 ± 0.089
EIGLLPEDALVNDFSDI [SMC3] | 3.3 ± 0.11 | 3.44 ± 0.089 | 2.91 ± 0.12 | 3.19 ± 0.088
DNVQANDPAREKFSSFI [SNF12] | 3.11 ± 0.043 | 2.94 ± 0.11 | 3.01 ± 0.086 | 3.1 ± 0.069
NENEDEDEGTLNVAEII [ARP9] | 2.13 ± 0.12 | 3.37 ± 0.13 | 2.91 ± 0.14 | 3.34 ± 0.072
FQQQQQQQQQQQQPQPQ [PGD1] | 3.05 ± 0.21 | 2.21 ± 0.11 | 2.7 ± 0.11 | 2.46 ± 0.2

Sequence | protein stability index (ubr1∆) | protein stability index (doa10∆) | protein stability index (pdr5∆) | protein stability index (san1∆)
GRPETYIWRYLPAPPVC [RPO31] | 2.02 ± 0.1 | 1.5 ± 0.18 | 1.57 ± 0.12 | 1.17 ± 0.16
KDNECSSFEENNDLESV [RRI2] | 3.34 ± 0.17 | 3.13 ± 0.16 | 3.12 ± 0.16 | 3.1 ± 0.17
VYNLALKCAERQLTSME [NUT1] | 2.31 ± 0.029 | 2.38 ± 0.073 | 2.2 ± 0.052 | 2.09 ± 0.07
EKGKKVTGFKDEVLETV [RPS1A] | 1.37 ± 0.1 | 1.32 ± 0.13 | 1.31 ± 0.1 | –
SGDSGVYTLACRSCPYE [RPC11] | 1.26 ± 0.15 | 1.28 ± 0.13 | 2.01 ± 0.18 | –
RYENNDDDERVEYNLFT [BRN1] | 3.04 ± 0.043 | 3.17 ± 0.1 | 3.27 ± 0.087 | 3.07 ± 0.064
GFNSIWKIPQNDIPQTE [SSN2] | 3.25 ± 0.076 | 3.09 ± 0.19 | 3.28 ± 0.28 | 3.18 ± 0.15
LVQQIQKETQKVTKIWS [PRP28] | 2.26 ± 0.047 | 2.39 ± 0.06 | 2.58 ± 0.064 | 2.52 ± 0.058
LDGVSYLHQNWVLHRDL [SSN3] | 2.24 ± 0.087 | 2.34 ± 0.11 | 2.11 ± 0.081 | 2.77 ± 0.19
SLTAEAMTAAEHGLHAP [CYT1] | 3.1 ± 0.045 | 2.82 ± 0.091 | 3.25 ± 0.073 | 2.94 ± 0.057
GKIPTLKISLIQIFRAH [PRP8] | 1.29 ± 0.041 | 1.72 ± 0.045 | 1.44 ± 0.044 | 1.33 ± 0.073
TGTARLNSMPNNVNEYS [YJL039C/NUP192] | 2.89 ± 0.056 | 2.82 ± 0.1 | 2.74 ± 0.085 | 3.01 ± 0.052
LQNSERDVELSSDELKV [SMC4] | 3.04 ± 0.12 | 2.84 ± 0.11 | 3.12 ± 0.088 | 2.73 ± 0.066
RVHRLLRRGNYAQRIGS [HTA1] | 2.74 ± 0.24 | 2.65 ± 0.23 | 2.77 ± 0.19 | 2.64 ± 0.094
DIILGQNIKAPSVKRQK [PRP8] | 2.51 ± 0.072 | 2.44 ± 0.081 | 2.35 ± 0.078 | 1.53 ± 0.16
ATEPQMVLFNIYDDWLD [PRP8] | 2.18 ± 0.044 | 2.28 ± 0.051 | 2.15 ± 0.047 | 1.6 ± 0.09
GISKKTRIAGVVYHPSN [RPS8A] | 2.403 ± 0.021 | 2.53 ± 0.03 | 2.456 ± 0.024 | 2.41 ± 0.032
PTKAAQRARDQDSIDIS [GAL11] | 3.22 ± 0.073 | 3.21 ± 0.094 | 3.16 ± 0.081 | 3.36 ± 0.077
IEKCLKASELKLALGIA [RPN2] | 2.69 ± 0.24 | 2.75 ± 0.1 | 3.1 ± 0.13 | 3 ± 0.098
YTRYLDRIYMLFHFEED [PRP8] | 1.61 ± 0.043 | 1.68 ± 0.059 | 1.4 ± 0.051 | 1.5 ± 0.12
KSMELFYDIRSLLERHI [YJL039C/NUP192] | 3.07 ± 0.046 | 2.84 ± 0.044 | 2.99 ± 0.038 | 2.91 ± 0.04
DKYKLYPVRIPRLDTSK [YJR042W/NUP85] | 3.24 ± 0.065 | 3.01 ± 0.075 | 2.9 ± 0.075 | 3.12 ± 0.059
QREAAAEYAQLLAKRLS [RPS6A] | 2.11 ± 0.046 | 1.78 ± 0.059 | 1.6 ± 0.055 | 1.7 ± 0.11
TKSHNTVQSWLCDLFVN [NUT1] | 1.54 ± 0.037 | 1.55 ± 0.036 | 1.46 ± 0.044 | 1.4 ± 0.09
INYLLTLAITTVTNSKF [RPN2] | 2.67 ± 0.067 | 2.22 ± 0.062 | 2.91 ± 0.078 | 2.1 ± 0.074
NLSIDEVAVPDRVAKVL [RPO31] | 3.22 ± 0.045 | 3.09 ± 0.076 | 3.05 ± 0.073 | 3.11 ± 0.06
VFTMKELAQYMKTNVHT [RGR1] | 2.69 ± 0.057 | 2.66 ± 0.1 | 2.84 ± 0.13 | 2.6 ± 0.082

Sequence | protein stability index (ubr1∆) | protein stability index (doa10∆) | protein stability index (pdr5∆) | protein stability index (san1∆)
SSSNGGGSAKPSLKFKP [RPC53] | 3.34 ± 0.091 | 2.61 ± 0.13 | 3 ± 0.14 | 2.74 ± 0.093
IAINFTVNHSEKFPNDV [RPP1] | 3.02 ± 0.058 | 2.68 ± 0.068 | 2.87 ± 0.047 | 2.95 ± 0.051
VYKFMSLAKSSALWSSR [ECM29] | 1.74 ± 0.29 | – | 1.97 ± 0.16 | 1.39 ± 0.2
SLKNTDALLNSTTEHIN [YJL039C/NUP192] | 2.42 ± 0.16 | 1.9 ± 0.15 | 2.49 ± 0.094 | 2.13 ± 0.12
SFLSGVKSLLSEEKIRD [SIR4] | 2.92 ± 0.11 | 3.01 ± 0.088 | 3.11 ± 0.072 | 2.92 ± 0.063
LNAELESKLIPQENDLE [SMC3] | 3.15 ± 0.057 | 3.12 ± 0.1 | 3.16 ± 0.076 | 3.23 ± 0.075
IVPLHSPFLMGHPMTKS [SEC65] | 2.79 ± 0.055 | 2.76 ± 0.083 | 2.57 ± 0.07 | 2.57 ± 0.079
NDLHHSEKKYAEEDQVQ [RPN3] | 2.98 ± 0.21 | 2.85 ± 0.1 | 3.3 ± 0.16 | 2.99 ± 0.13
LGRLVKAGKITTIEEIF [RPS2] | 2.25 ± 0.12 | 2.03 ± 0.099 | 2.29 ± 0.12 | 2.16 ± 0.14
RLRTLCRDSDDHKRFIV [DIS3] | 2.95 ± 0.048 | 2.68 ± 0.2 | 2.75 ± 0.13 | 2.2 ± 0.27
TVNHSEKFPNDVKLLNP [RPP1] | 3 ± 0.036 | 2.79 ± 0.05 | 2.87 ± 0.034 | 3.08 ± 0.036
QDPKTLVALLSRDLWCF [SSN2] | 1.54 ± 0.073 | 1.39 ± 0.057 | 1.34 ± 0.043 | 1.31 ± 0.15
GTLEGHNGWVTSLATSA [ASC1] | 1.67 ± 0.066 | 2.61 ± 0.063 | 1.87 ± 0.069 | 1.74 ± 0.15
EYWAQRKKKFVLDVDPK [ISW2] | 3.28 ± 0.21 | 3.08 ± 0.094 | 2.48 ± 0.26 | 3.03 ± 0.21
ERSDLLPYLSDTCAVSF [YJR042W/NUP85] | 2.45 ± 0.041 | 2.31 ± 0.099 | 2.46 ± 0.06 | 2.59 ± 0.076
NVLKAPFIKSESKPFSS [SIR4] | 3.03 ± 0.059 | 2.65 ± 0.068 | 2.81 ± 0.088 | 2.6 ± 0.064
MINGRKLIKFETRNEDD [FAS1] | 2.81 ± 0.044 | 2.9 ± 0.071 | 2.81 ± 0.068 | 3.07 ± 0.047
VKIRATGGTRTKTPGPG [RPS14A] | 3.33 ± 0.21 | 3.21 ± 0.25 | 3.08 ± 0.16 | 2.72 ± 0.14
DKQAEGTPLFTFGKKAD [YOR098C/NUP1] | 1.75 ± 0.066 | 2.43 ± 0.06 | 2.43 ± 0.078 | 2.5 ± 0.077
PGEFVTAIAHSIREQVH [SNF5] | 2.29 ± 0.047 | 2.27 ± 0.08 | 2.13 ± 0.047 | 1.94 ± 0.054
GFETSKNIKIIMATNRL [RPT6] | 3.28 ± 0.063 | 2.87 ± 0.15 | 2.54 ± 0.084 | 2.36 ± 0.066
EPYARVSGDLNPIHVSR [FAS1] | 2.83 ± 0.1 | 2.64 ± 0.14 | 2.92 ± 0.092 | 2.76 ± 0.086
RKRCKGTVGNSHKTTKE [RPL11A] | – | 2.94 ± 0.28 | 3 ± 0.17 | 2.99 ± 0.16
QGDGLLTKLQKYGAAVR [RPN7] | 3.28 ± 0.19 | 2.93 ± 0.17 | 2.89 ± 0.14 | 3.17 ± 0.12
AHTASVGVVFGSGAANE [COR1] | 3.39 ± 0.12 | 3.23 ± 0.12 | 3.29 ± 0.084 | 3.07 ± 0.1
QGKHTKFENDELAESTT [LRP1] | 3.21 ± 0.077 | 3.75 ± 0.23 | 2.88 ± 0.12 | 3.12 ± 0.079
